Experiments:
full length Ku80 = target: T1, full length Ku80 (Homo sapiens, UniProt P13010); assay: GST pull-down of Ku80 from biotinylated bacterial extract by GST-Ku70 derivatives; type: binding; details: GST-fusion on glutathione agarose beads, biotinylated bacterial extract containing Ku80, seven NETN washes, streptavidin-HRP blot
T1 construct: incubated with biotinylated bacterial cell extracts containing full length Ku80; made in house; host or cells: E. coli BL21 pLysS
Procedure: (§1) Full length Ku70 and Ku80 were cloned in frame with the glutathione binding domain of human glutathione S-transferase (GST) by sub-cloning into pGEX2TKP (a derivative of […] by Pharmacia). Deletion mutants of Ku70 and Ku80 were cloned by Pfu polymerase amplification and cloning into pGEX2TKP. Expression from all pGEX2TKP constructs was carried out in either DH5α or DS941 strains of E. coli. Bacterial cell extracts were produced by sonication in Phosphate-buffered saline (PBS; 138 mM NaCl, 3 mM KCl, 10 mM Phosphate buffer pH 7.4) containing 1% Triton-X100 (Sigma) and protease inhibitor tablets (Boehringer). GST-fusion proteins were purified by passing bacterial lysates over Glutathione Agarose beads (Pharmacia) and washing extensively in PBS containing 1% Triton-X100 and then in PBS alone. The beads/proteins were stored at −80° C. prior to use.
Ku70 and Ku80 were cloned into pET30a (Novagen) to generate a N-terminal hexa-Histidine tag and expressed at low levels in E. coli (BL21 pLysS). […]
(§2) In a complementary approach to the yeast 2-hybrid technique, the inventors used a “pull-down” assay to detect interactions between recombinant deletion derivatives of the two Ku subunits. […] Interacting proteins were detected by probing these western blots with streptavidin that was conjugated to horse radish peroxidase (HRP). […]

full length Ku70 = target: T2, full length Ku70 (Homo sapiens, UniProt P12956); assay: GST pull-down of Ku70 from biotinylated bacterial extract by GST-Ku80 derivatives; type: binding; details: GST-fusion on glutathione agarose beads; biotinylated bacterial extract containing Ku70; seven NETN washes; streptavidin-HRP blot
T2 construct: incubated with biotinylated bacterial cell extracts containing full length Ku70; made in house; host or cells: E. coli BL21 pLysS
Procedure: as §1, with “use. […]” for “use.”
as §2
The inventors tested a range of Ku80 deletion derivatives expressed as GST-fusions for their ability to interact with full-length Ku70. […]

T1 sequence (P13010 whole entry, the tested form may be a part): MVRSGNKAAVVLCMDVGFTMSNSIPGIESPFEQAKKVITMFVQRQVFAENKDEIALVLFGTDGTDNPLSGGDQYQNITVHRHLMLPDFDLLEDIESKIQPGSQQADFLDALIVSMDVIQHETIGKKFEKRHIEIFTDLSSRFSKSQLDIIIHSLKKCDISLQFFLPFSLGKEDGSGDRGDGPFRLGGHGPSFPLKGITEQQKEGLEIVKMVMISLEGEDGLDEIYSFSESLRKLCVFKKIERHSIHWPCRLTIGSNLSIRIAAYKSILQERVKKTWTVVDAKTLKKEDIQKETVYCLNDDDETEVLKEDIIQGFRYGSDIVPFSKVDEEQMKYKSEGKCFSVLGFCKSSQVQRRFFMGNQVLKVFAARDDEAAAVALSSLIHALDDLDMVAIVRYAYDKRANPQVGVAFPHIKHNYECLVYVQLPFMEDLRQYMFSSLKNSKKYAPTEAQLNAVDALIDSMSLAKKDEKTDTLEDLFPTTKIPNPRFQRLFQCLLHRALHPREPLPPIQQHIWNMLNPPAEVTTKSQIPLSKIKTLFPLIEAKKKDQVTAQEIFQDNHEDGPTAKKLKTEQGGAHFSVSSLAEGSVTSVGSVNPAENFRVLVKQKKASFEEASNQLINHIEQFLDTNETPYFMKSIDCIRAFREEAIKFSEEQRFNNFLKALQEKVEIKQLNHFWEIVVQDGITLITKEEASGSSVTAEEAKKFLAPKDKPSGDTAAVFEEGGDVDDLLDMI
T2 sequence (P12956 whole entry, the tested form may be a part): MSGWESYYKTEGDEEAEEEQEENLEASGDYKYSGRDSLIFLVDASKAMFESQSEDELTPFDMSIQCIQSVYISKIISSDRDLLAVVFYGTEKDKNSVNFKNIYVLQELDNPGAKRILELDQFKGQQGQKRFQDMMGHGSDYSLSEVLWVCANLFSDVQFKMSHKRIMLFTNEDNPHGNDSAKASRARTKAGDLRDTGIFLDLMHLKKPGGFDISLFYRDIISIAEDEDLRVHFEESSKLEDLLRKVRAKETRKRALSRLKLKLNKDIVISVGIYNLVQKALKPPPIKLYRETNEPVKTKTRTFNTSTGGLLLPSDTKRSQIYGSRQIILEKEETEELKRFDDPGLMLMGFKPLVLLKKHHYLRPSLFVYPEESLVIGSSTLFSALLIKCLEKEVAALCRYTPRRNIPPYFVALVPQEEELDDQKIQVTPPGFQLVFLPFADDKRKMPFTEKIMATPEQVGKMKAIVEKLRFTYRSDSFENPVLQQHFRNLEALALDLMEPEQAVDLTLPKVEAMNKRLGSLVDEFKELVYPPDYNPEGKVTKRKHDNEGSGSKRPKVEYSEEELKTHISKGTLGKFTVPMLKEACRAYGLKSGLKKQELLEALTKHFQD

| Substance | interaction with full-length Ku80 (full length Ku80) | interaction with full-length Ku80 (full length Ku80; listed as Full-length Ku70) | interaction with full-length Ku70 (full length Ku70) |
| --- | --- | --- | --- |
| GST-Ku70: full length human Ku70 fused to glutathione S-transferase, expressed in E. coli | only a single species is retained efficiently on the beads | binds to Ku80 efficiently |  |
| GST-Ku80: full length human Ku80 fused to glutathione S-transferase, expressed in E. coli |  |  | only a single species is retained efficiently on the beads |

Source: patent US6753151B1, “Interactions of Ku polypeptides and applications thereof” (Kudos Pharmaceuticals Limited, priority 1999, dated 2004)
